Earlier results on one substance are cited in article PMC5413942.

The series deals with FhuA Ton box peptide Ton box (Escherichia coli) (UniProt P06971).

pKd: −log10 of the molar value.

TonB, sequence (P02929 whole entry): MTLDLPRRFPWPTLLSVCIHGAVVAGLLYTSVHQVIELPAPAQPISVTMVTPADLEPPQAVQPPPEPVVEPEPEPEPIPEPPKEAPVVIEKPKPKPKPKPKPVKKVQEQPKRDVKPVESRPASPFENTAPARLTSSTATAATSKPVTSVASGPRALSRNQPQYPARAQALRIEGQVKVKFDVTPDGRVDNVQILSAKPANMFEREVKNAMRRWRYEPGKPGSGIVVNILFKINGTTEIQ

With TonB (from UniProt P02929), the pKd was 4.44.
